Reference: paper PMC9958909, “Insight into the Structural Basis for Dual Nucleic Acid—Recognition by the Scaffold Attachment Factor B2 Protein”
Numbering of substitutions follows the chain as printed. One block for each molecule: values may come before it.

What was measured:
[1] = biological target: SAFB2 SAP domain (21-70), wild type (human) (UniProt Q14151); assay: SEC; preparative size exclusion on HiLoad 16/600 SD 75 in 25 mM sodium phosphate, 150 mM NaCl, 0.02% NaN3, pH 6.5; size from calibration
SAFB2 RRM (404-485) [2] = biological target: T1, SAFB2 RRM (404-485) (Homo sapiens, UniProt Q14151 404-485); assay: NMR titration; CSPs equal to A7/C7; NMR: 20 mM BisTris, 150 mM NaCl, pH 6.5, 5% D2O, 298 K (RRM plus 2 mM TCEP). EMSA: 25 mM sodium phosphate, 150 mM NaCl, 0.02% NaN3, pH 6.5, 10 mM MgCl2, 0.6 ug; details: protein: recombinant; tags: N-terminal GAM left after TEV cleavage (His6-Trx removed); blunt
SAFB2 SAP WT (21-70) [3] = biological target: T2, SAFB2 SAP WT (21-70) (Homo sapiens, UniProt Q14151 21-70); assay: EMSA; 0-40 uM SAP; yeast tRNA, 10 mM MgCl2; slight preference for AT over GC; apparent micromolar affinity; NMR: 20 mM BisTris, 150 mM NaCl, pH 6.5, 5% D2O, 298 K (RRM plus 2 mM TCEP). EMSA: 25 mM sodium phosphate, 150 mM NaCl, 0.02% NaN3, pH 6.5, 10 mM MgCl2, 0.6 ug; details: protein: recombinant; tags: N-terminal GAM left after TEV cleavage (His6-Trx removed); label: 5'-6-FAM on fw strand; blunt
T2 chain: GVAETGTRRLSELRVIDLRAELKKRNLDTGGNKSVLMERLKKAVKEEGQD

SAFB2 RRM (404-485) [4] = biological target: T1, SAFB2 RRM (404-485); assay: NMR titration; significant CSPs of RNP residues; NMR: 20 mM BisTris, 150 mM NaCl, pH 6.5, 5% D2O, 298 K (RRM plus 2 mM TCEP). EMSA: 25 mM sodium phosphate, 150 mM NaCl, 0.02% NaN3, pH 6.5, 10 mM MgCl2, 0.6 ug; details: protein: recombinant; tags: N-terminal GAM left after TEV cleavage (His6-Trx removed)
SAFB2 SAP WT (21-70) [5] = biological target: T2, SAFB2 SAP WT (21-70); assay: NMR titration; up to 6x DNA; fast exchange; NMR: 20 mM BisTris, 150 mM NaCl, pH 6.5, 5% D2O, 298 K (RRM plus 2 mM TCEP). EMSA: 25 mM sodium phosphate, 150 mM NaCl, 0.02% NaN3, pH 6.5, 10 mM MgCl2, 0.6 ug; details: protein: recombinant; tags: N-terminal GAM left after TEV cleavage (His6-Trx removed); blunt
SAFB2 SAP K53A/S54A = biological target: T3, SAFB2 SAP K53A/S54A (Homo sapiens, UniProt Q14151 21-70, K53A;S54A); assay: NMR titration; 6x DNA; no significant CSPs; NMR: 20 mM BisTris, 150 mM NaCl, pH 6.5, 5% D2O, 298 K (RRM plus 2 mM TCEP). EMSA: 25 mM sodium phosphate, 150 mM NaCl, 0.02% NaN3, pH 6.5, 10 mM MgCl2, 0.6 ug; details: protein: recombinant; tags: N-terminal GAM left after TEV cleavage; blunt
T3 chain: T2 chain with K33A, S34A

SAFB2 SAP WT (21-70) [6] = biological target: T2, SAFB2 SAP WT (21-70); assay: NMR titration; CSP as for 16mer; NMR: 20 mM BisTris, 150 mM NaCl, pH 6.5, 5% D2O, 298 K (RRM plus 2 mM TCEP). EMSA: 25 mM sodium phosphate, 150 mM NaCl, 0.02% NaN3, pH 6.5, 10 mM MgCl2, 0.6 ug; details: protein: recombinant; tags: N-terminal GAM left after TEV cleavage (His6-Trx removed); blunt

T1 sequence (Q14151 404-485): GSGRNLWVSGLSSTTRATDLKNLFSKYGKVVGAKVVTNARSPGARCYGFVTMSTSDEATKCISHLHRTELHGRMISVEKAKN

stoichiometry N [1]: 2
Molecule: SAFB2 SAP domain (21-70), wild type (from UniProt Q14151 21-70) (domain or fragment)

B1: dsGC16mer (dsDNA)
DNA 1: CGCCCCCGCGCCCGCG
DNA 2: CGCGGGCGCGGGGGCG
binding result (SAFB2 RRM (404-485) [2]): binds

B2: dsAT13mer (dsDNA)
DNA 1: GCAATAAATACG
DNA 2: CGTATTTATTGC
binding result (SAFB2 SAP WT (21-70) [3]): binds

B3: A7 (ssRNA)
RNA: AAAAAAA
binding result (SAFB2 RRM (404-485) [4]): binds

B4: dsAT16mer (dsDNA)
DNA 1: GCGCACAATATAACGC
DNA 2: GCGTTATATTGTGCGC
binding result (SAFB2 SAP WT (21-70) [5]): binds | binding result (SAFB2 RRM (404-485) [2]): binds

B5: C7 (ssRNA)
RNA: CCCCCCC
binding result (SAFB2 RRM (404-485) [4]): binds

B6: dsAT9mer (dsDNA)
DNA 1: CAATATAAC
DNA 2: GTTATATTG
binding result (SAFB2 SAP K53A/S54A): no binding | binding result (SAFB2 SAP WT (21-70) [6]): binds
